Measured values reported in US20220229068A1, “DETECTION OF PROTEIN TO PROTEIN INTERACTIONS” (THE GOVERNING COUNCIL OF THE UNIVERSITY OF TORONTO, priority 2019, published 2022).
Values belong to the binder of their own block, whether it stands above or below them.

Assays:
Assay in all cases: SIMPL ELISA, bait-IN/prey-CIC
[1] = target: EIF3E (prey, CIC format) (human) (UniProt P60228)
[2] = target: RELA (prey, CIC format) (human) (UniProt Q04206)
[3] = target: T1, MAD1L1 (prey, CIC format) (human) (UniProt Q9Y6D9)
T1 sequence (looked up): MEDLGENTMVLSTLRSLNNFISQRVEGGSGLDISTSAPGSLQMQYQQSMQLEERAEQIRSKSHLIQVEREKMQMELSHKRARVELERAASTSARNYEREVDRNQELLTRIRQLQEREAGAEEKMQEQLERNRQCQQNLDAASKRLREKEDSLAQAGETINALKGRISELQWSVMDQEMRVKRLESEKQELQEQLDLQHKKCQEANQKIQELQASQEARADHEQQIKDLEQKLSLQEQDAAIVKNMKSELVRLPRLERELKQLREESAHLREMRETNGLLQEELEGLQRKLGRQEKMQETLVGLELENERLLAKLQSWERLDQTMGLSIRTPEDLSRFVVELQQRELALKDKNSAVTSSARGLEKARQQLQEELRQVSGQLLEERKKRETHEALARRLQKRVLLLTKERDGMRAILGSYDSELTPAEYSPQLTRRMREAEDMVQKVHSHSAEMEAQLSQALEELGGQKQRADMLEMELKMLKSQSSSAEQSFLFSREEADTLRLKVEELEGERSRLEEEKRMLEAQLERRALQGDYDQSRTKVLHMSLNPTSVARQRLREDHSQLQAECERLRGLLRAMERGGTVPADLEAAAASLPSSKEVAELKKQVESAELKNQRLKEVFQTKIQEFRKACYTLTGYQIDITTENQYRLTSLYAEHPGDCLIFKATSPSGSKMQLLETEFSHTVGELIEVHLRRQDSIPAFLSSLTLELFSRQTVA

[4] = target: T2, MCM5 (prey, CIC format) (human) (UniProt P33992)
T2 sequence (looked up): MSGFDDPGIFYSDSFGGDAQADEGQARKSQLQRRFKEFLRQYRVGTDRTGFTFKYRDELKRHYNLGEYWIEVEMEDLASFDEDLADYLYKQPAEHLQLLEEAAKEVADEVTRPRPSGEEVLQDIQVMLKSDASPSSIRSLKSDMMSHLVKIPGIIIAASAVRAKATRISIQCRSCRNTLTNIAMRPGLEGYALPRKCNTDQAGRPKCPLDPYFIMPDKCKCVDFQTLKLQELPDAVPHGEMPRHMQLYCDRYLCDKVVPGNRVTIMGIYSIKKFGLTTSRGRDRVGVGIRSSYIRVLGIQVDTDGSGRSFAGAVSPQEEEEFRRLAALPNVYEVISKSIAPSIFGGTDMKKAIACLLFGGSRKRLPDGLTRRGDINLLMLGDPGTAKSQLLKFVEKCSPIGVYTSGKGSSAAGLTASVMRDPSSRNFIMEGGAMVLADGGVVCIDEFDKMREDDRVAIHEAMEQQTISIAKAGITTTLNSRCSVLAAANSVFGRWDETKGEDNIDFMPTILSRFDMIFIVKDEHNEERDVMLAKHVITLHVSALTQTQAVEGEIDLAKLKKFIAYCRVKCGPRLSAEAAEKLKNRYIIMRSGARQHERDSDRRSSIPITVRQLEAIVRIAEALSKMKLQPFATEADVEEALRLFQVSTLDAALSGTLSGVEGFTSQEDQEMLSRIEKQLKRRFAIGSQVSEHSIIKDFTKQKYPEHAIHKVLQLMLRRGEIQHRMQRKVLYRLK

[5] = target: T3, NTF4 (prey, CIC format) (human) (UniProt P34130)
T3 sequence (looked up): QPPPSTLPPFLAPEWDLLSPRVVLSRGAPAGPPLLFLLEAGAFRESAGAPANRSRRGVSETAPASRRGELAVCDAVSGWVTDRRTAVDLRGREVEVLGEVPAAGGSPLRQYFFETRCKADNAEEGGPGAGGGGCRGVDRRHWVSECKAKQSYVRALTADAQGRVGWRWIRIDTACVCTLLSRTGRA

[6] = target: HBB (prey, CIC format) (human) (UniProt P68871)
[7] = target: T4, ORC4 (prey, CIC format) (human) (UniProt O43929)
T4 sequence (looked up): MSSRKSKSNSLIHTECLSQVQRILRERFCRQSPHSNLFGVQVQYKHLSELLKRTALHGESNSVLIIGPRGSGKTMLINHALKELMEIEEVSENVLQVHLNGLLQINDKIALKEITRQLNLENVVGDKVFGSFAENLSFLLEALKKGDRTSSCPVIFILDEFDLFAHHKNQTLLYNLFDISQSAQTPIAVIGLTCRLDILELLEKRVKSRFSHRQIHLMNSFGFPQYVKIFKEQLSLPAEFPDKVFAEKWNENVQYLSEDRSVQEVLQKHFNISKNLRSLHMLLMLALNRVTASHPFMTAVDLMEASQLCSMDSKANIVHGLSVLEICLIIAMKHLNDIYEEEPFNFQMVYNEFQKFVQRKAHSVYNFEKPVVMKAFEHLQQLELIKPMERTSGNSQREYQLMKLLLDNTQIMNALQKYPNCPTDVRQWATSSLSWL

[8] = target: T5, MCM10 (prey, CIC format) (human) (UniProt Q7L590)
T5 sequence (looked up): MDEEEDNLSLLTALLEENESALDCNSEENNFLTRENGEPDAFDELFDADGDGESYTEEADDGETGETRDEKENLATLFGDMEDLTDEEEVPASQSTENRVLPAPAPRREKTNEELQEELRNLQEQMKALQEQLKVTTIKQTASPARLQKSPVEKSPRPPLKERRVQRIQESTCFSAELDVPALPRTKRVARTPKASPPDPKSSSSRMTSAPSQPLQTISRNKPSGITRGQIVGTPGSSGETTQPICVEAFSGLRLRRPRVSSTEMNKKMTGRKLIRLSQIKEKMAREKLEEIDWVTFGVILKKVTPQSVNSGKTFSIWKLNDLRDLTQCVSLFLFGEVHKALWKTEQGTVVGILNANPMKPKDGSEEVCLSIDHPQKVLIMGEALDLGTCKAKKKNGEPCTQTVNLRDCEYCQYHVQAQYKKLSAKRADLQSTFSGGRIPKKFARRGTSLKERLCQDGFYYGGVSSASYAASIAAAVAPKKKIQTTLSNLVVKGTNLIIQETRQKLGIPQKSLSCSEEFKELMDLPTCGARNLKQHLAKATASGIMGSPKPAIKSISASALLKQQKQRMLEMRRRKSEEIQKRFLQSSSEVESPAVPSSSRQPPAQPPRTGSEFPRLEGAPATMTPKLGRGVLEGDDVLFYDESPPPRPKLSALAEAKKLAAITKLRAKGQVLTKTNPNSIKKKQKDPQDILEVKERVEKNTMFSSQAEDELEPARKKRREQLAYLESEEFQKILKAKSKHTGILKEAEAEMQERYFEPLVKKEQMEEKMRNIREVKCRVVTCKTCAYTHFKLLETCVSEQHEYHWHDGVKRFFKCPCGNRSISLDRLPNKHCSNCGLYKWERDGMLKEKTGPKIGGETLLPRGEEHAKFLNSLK

[9] = target: UBE2I (prey, CIC format) (human) (UniProt P63279)
[10] = target: T6, FRS2 (prey, CIC format) (human) (UniProt Q8WU20)
T6 sequence (looked up): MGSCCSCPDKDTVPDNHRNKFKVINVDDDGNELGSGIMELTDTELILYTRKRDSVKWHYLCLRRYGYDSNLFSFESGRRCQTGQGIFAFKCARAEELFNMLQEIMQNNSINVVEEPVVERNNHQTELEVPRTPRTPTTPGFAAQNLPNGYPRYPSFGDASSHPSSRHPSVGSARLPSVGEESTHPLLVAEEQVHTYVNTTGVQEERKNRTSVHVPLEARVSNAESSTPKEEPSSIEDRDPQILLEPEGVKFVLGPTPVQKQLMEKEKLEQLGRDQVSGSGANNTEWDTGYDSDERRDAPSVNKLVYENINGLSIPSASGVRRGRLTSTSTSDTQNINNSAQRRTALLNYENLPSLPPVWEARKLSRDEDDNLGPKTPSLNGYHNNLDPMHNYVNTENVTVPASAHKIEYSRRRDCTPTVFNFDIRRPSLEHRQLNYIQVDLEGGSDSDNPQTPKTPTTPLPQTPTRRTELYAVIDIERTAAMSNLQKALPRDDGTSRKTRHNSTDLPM

Sequence of EIF3E (prey, CIC format) (human) (P60228 whole entry): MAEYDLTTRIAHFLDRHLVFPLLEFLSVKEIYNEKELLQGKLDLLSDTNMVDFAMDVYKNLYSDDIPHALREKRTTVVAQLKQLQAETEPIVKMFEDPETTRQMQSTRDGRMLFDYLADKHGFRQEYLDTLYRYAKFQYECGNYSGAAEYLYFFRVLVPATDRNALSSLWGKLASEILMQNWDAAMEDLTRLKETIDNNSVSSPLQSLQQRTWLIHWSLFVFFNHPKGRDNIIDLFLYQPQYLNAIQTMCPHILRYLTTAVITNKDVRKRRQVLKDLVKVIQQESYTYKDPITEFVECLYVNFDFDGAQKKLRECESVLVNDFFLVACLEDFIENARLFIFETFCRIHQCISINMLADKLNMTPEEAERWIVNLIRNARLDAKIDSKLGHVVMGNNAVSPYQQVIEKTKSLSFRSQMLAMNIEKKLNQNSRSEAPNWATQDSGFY
Sequence of HBB (prey, CIC format) (human) (P68871 whole entry): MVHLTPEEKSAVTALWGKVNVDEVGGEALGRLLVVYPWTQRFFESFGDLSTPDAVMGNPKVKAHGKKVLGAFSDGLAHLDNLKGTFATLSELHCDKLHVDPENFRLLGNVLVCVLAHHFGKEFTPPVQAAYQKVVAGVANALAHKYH
Sequence of RELA (prey, CIC format) (human) (Q04206 whole entry): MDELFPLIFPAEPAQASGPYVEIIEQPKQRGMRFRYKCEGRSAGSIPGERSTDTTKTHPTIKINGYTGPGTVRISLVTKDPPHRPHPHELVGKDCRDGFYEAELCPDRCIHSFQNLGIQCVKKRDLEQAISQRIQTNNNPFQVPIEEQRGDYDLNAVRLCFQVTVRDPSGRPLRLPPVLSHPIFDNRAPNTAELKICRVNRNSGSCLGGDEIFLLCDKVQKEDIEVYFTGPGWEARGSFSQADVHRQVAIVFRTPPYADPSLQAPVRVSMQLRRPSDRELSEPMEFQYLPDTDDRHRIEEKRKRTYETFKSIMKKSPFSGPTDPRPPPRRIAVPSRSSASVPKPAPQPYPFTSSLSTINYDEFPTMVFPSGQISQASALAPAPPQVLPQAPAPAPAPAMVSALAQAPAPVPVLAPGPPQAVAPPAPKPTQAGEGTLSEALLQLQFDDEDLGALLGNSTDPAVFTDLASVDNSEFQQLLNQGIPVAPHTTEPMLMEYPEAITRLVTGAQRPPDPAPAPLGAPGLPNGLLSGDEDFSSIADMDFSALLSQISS
Sequence of UBE2I (prey, CIC format) (human) (P63279 whole entry): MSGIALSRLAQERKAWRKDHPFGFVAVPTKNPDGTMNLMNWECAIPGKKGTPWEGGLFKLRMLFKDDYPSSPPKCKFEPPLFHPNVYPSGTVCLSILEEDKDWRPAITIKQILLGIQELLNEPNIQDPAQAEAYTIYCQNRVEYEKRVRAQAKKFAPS

PLU mean [1]: 0.676
PLU mean [2]: 0.328
B1: IFIT1 (bait, IN format) (protein, human, UniProt P09914 1-478, looked up)
chain: MSTNGDDHQVKDSLEQLRCHFTWELSIDDDEMPDLENRVLDQIEFLDTKYSVGIHNLLAYVKHLKGQNEEALKSLKEAENLMQEEHDNQANVRSLVTWGNFAWMYYHMGRLAEAQTYLDKVENICKKLSNPFRYRMECPEIDCEEGWALLKCGGKNYERAKACFEKVLEVDPENPESSAGYAISAYRLDGFKLATKNHKPFSLLPLRQAVRLNPDNGYIKVLLALKLQDEGQEAEGEKYIEEALANMSSQTYVFRYAAKFYRRKGSVDKALELLKKALQETPTSVLLHHQIGLCYKAQMIQIKEATKGQPRGQNREKLDKMIRSAIFHFESAVEKKPTFEVAHLDLARMYIEAGNHRKAEENFQKLLCMKPVVEETMQDIHFHYGRFQEFQKKSDVNAIIHYLKAIKIEQASLTRDKSINSLKKLVLRKLRRKALDLESLSLLGFVYKLEGNMNEALEYYERALRLAADFENSVRQGP

PLU mean [3]: 0.19
PLU mean [4]: 0.22
PLU mean [5]: 0.629
B2: BDNF (bait, IN format) (ligand, human, UniProt P23560 19-247, looked up)
chain: APMKEANIRGQGGLAYPGVRTHGTLESVNGPKAGSRGLTSLADTFEHVIEELLDEDQKVRPNEENNKDADLYTSRVMLSSQVPLEPPLLFLLEEYKNYLDAANMSMRVRRHSDPARRGELSVCDSISEWVTAADKKTAVDMSGGTVTVLEKVPVSKGQLKQYFYETKCNPMGYTKEGCRGIDKRHWNSQCRTTQSYVRALTMDSKKRIGWRFIRIDTSCVCTLTIKRGR

PLU mean [6]: 0.227
PLU mean [7]: 0.297
PLU mean [8]: 0.43
PLU mean [9]: 0.119
B3: ORC2 (bait, IN format) (protein, human, UniProt Q13416 1-577, looked up)
chain: MSKPELKEDKMLEVHFVGDDDVLNHILDREGGAKLKKERAQLLVNPKKIIKKPEYDLEEDDQEVLKDQNYVEIMGRDVQESLKNGSATGGGNKVYSFQNRKHSEKMAKLASELAKTPQKSVSFSLKNDPEITINVPQSSKGHSASDKVQPKNNDKSEFLSTAPRSLRKRLIVPRSHSDSESEYSASNSEDDEGVAQEHEEDTNAVIFSQKIQAQNRVVSAPVGKETPSKRMKRDKTSDLVEEYFEAHSSSKVLTSDRTLQKLKRAKLDQQTLRNLLSKVSPSFSAELKQLNQQYEKLFHKWMLQLHLGFNIVLYGLGSKRDLLERFRTTMLQDSIHVVINGFFPGISVKSVLNSITEEVLDHMGTFRSILDQLDWIVNKFKEDSSLELFLLIHNLDSQMLRGEKSQQIIGQLSSLHNIYLIASIDHLNAPLMWDHAKQSLFNWLWYETTTYSPYTEETSYENSLLVKQSGSLPLSSLTHVLRSLTPNARGIFRLLIKYQLDNQDNPSYIGLSFQDFYQQCREAFLVNSDLTLRAQLTEFRDHKLIRTKKGTDGVEYLLIPVDNGTLTDFLEKEEEEA

PLU mean [10]: 0.474
B4: PTPN11 (bait, IN format) (enzyme, human, UniProt Q06124 1-593, looked up)
chain: MTSRRWFHPNITGVEAENLLLTRGVDGSFLARPSKSNPGDFTLSVRRNGAVTHIKIQNTGDYYDLYGGEKFATLAELVQYYMEHHGQLKEKNGDVIELKYPLNCADPTSERWFHGHLSGKEAEKLLTEKGKHGSFLVRESQSHPGDFVLSVRTGDDKGESNDGKSKVTHVMIRCQELKYDVGGGERFDSLTDLVEHYKKNPMVETLGTVLQLKQPLNTTRINAAEIESRVRELSKLAETTDKVKQGFWEEFETLQQQECKLLYSRKEGQRQENKNKNRYKNILPFDHTRVVLHDGDPNEPVSDYINANIIMPEFETKCNNSKPKKSYIATQGCLQNTVNDFWRMVFQENSRVIVMTTKEVERGKSKCVKYWPDEYALKEYGVMRVRNVKESAAHDYTLRELKLSKVGQGNTERTVWQYHFRTWPDHGVPSDPGGVLDFLEEVHHKQESIMDAGPVVVHCSAGIGRTGTFIVIDILIDIIREKGVDCDIDVPKTIQMVRSQRSGMVQTEAQYRFIYMAVQHYIETLQRRIEEEQKSKRKGHEYTNIKYSLADQTSGDQSPLPPCTPTPPCAEMREDSARVYENVGLMQQQKSFR
